Assay results from patent US20110243899A1 (NATIONAL UNIVERSITY CORPORATION CHIBA UNIVERSITY, published 2011).

What was measured:
[1] = target: Myc-tagged Frz8CRD (Frz8CRD-Myc), cysteine-rich domain of Frizzled 8 (Mus musculus (Mouse)) (UniProt Q61091); assay: liquid-phase binding assay with immunoprecipitated Frz8CRD-Myc, Scatchard plot
[2] = target: T1, Myc-tagged Frz8CRD (Frz8CRD-Myc), cysteine-rich domain of Frizzled 8 (UniProt Q61091 28-151); assay: radioligand saturation binding (Scatchard)
T1 chain: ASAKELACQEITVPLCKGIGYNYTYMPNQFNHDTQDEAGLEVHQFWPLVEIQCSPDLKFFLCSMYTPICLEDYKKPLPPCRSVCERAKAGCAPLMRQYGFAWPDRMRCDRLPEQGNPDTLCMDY

[3] = target: T2, Myc-tagged LRP6N (LRP6N-Myc), extracellular portion of LRP6 (UniProt O75581 20-1370); assay: radioligand saturation binding (Scatchard); Kd1, high-affinity site
T2 chain: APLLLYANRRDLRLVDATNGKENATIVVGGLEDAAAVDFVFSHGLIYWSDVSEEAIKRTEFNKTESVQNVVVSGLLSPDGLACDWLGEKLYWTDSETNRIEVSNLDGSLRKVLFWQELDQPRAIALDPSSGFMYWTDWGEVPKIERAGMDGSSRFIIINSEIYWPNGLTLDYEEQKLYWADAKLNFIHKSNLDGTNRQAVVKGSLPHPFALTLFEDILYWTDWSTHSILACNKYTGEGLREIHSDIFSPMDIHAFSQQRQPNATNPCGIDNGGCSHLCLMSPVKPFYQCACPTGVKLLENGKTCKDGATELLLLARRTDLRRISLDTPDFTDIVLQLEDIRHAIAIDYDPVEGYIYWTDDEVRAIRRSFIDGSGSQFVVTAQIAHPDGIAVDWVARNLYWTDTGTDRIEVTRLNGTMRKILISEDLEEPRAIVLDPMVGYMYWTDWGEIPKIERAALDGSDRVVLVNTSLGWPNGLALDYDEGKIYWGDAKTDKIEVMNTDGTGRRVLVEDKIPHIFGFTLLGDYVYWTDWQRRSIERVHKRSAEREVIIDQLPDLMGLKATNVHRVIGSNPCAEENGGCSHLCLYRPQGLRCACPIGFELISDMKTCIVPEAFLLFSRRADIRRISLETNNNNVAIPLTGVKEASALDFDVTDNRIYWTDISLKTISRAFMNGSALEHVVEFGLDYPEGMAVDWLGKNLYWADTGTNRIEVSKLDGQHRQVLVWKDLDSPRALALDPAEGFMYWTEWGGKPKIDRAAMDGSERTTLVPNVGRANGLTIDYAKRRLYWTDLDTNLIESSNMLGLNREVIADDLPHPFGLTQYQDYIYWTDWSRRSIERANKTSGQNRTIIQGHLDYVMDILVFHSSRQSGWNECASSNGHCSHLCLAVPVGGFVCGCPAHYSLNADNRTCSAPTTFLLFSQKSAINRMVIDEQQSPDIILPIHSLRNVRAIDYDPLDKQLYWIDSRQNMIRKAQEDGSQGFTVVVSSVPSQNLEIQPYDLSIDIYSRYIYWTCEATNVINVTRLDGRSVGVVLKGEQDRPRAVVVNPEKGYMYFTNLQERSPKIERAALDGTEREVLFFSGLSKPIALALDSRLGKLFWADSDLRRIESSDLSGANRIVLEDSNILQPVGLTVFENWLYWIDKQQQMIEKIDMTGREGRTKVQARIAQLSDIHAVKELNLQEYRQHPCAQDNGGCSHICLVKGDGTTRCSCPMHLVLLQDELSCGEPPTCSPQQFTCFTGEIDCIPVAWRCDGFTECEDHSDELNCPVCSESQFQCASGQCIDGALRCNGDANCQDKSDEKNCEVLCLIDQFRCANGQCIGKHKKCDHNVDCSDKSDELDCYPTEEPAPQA

[4] = target: T2, Myc-tagged LRP6N (LRP6N-Myc), …; assay: radioligand saturation binding (Scatchard); Kd2, low-affinity site
[5] = target: T3, Myc-tagged LRP6N (LRP6N-Myc), extracellular portion of LRP6 (UniProt O75581 20-1370, limits assumed); assay: IP with anti-Myc antibody, immunoblot with anti-V5 antibody
T3 construct: extracellular domain; Produced in conditioned medium of 293 cells; not shown: Myc tag
T3 sequence (looked up): T2 chain
Procedure: The interaction was assessed by allowing LRP6N-Myc to react with each V5-tagged IGFBP, and performing immunoprecipitation (IP) with an anti-Myc antibody and subsequent immunoblotting (IB) with an anti-V5 antibody (upper panel), and immunoprecipitation (IP) with an anti-V5 antibody and subsequent immunoblotting (IB) with an anti-V5 antibody (lower panel). In the figure, IGFBP-1, IGFBP-2, IGFBP-3, IGFBP-4, IGFBP-5, and IGFBP-6 are represented by BP1, BP2, BP3, BP4, BP5, and BP6, respectively.

^125I-labelled IGFBP-4 showed a Kd [1] of 25 nM.

B1: ^125I-labelled IGFBP-4 (other)
chain: DEAIHCPPCSEEKLARCRPPVGCEELVREPGCGCCATCALGLGMPCGVYTPRCGSGLRCYPPRGVEKPLHTLMHGQGVCMELAEIEAIQESLQPSDKDEGDHPNNSFSPCSAHDRRCLQKHFAKIRDRSTSGGKMKVNGAPREDARPVPQGSCQSELHRALERLAASQSRTHEDLYIIPIPNCDRNGNFHPKQCHPALDGQRGKCWCVDRKTGVKLPGGLEPKGELDCHQLADSFRE
B1 showed a Kd [2] of 2.5 nM, a Kd [3] of 0.17 nM and a Kd [4] of 6.9 nM.

B2: IGFBP-3 (V5-tagged) (other, mouse, UniProt P47878 28-292, looked up)
chain: GAGAVGAGPVVRCEPCDARALSQCAPPPTAPACTELVREPGCGCCLTCALREGDACGVYTERCGTGLRCQPRPAEQYPLRALLNGRGFCANASAAGSLSTYLPSQPAPGNISESEEEHNAGSVESQVVPSTHRVTDSKFHPLHAKMDVIKKGHARDSQRYKVDYESQSTDTQNFSSESKRETEYGPCRREMEDTLNHLKFLNVLSPRGVHIPNCDKKGFYKKKQCRPSKGRKRGFCWCVDKYGQPLPGYDTKGKDDVHCLSVQSQ
notes: V5-tagged in the IP/western; not shown: V5 tag
B2: no binding [5].

B3: IGFBP-5 (V5-tagged) (other, mouse, UniProt Q07079 20-271, looked up)
chain: LGSFVHCEPCDEKALSMCPPSPLGCELVKEPGCGCCMTCALAEGQSCGVYTERCAQGLRCLPRQDEEKPLHALLHGRGVCLNEKSYGEQTKIERDSREHEEPTTSEMAEETYSPKVFRPKHTRISELKAEAVKKDRRKKLTQSKFVGGAENTAHPRVIPAPEMRQESEQGPCRRHMEASLQEFKASPRMVPRAVYLPNCDRKGFYKRKQCKPSRGRKRGICWCVDKYGMKLPGMEYVDGDFQCHAFDSSNVE
notes: as for B2
B3: no binding [5].
